The values that follow come from article doi:10.1101/2024.09.24.614577 (bioRxiv, 2024).

This data set deals with the molecule itself. In words: cryo-EM structure.

B1: human GPR155 (residues 1-870), construct without the eGFP tag (receptor, UniProt Q7Z3F1 1-870, looked up)
chain: MNSNLPAENLTIAVNMTKTLPTAVTHGFNSTNDPPSMSITRLFPALLECFGIVLCGYIAGRANVITSTQAKGLGNFVSRFALPALLFKNMVVLNFSNVDWSFLYSILIAKASVFFIVCVLTLLVASPDSRFSKAGLFPIFATQSNDFALGYPIVEALYQTTYPEYLQYIYLVAPISLMMLNPIGFIFCEIQKWKDTQNASQNKIKIVGLGLLRVLQNPIVFMVFIGIAFNFILDRKVPVYVENFLDGLGNSFSGSALFYLGLTMVGKIKRLKKSAFVVLILLITAKLLVLPLLCREMVELLDKGDSVVNHTSLSNYAFLYGVFPVAPGVAIFATQFNMEVEIITSGMVISTFVSAPIMYVSAWLLTFPTMDPKPLAYAIQNVSFDISIVSLISLIWSLAILLLSKKYKQLPHMLTTNLLIAQSIVCAGMMIWNFVKEKNFVGQILVFVLLYSSLYSTYLWTGLLAISLFLLKKRERVQIPVGIIIISGWGIPALLVGVLLITGKHNGDSIDSAFFYGKEQMITTAVTLFCSILIAGISLMCMNQTAQAGSYEGFDQSQSHKVVEPGNTAFEESPAPVNEPELFTSSIPETSCCSCSMGNGELHCPSIEPIANTSTSEPVIPSFEKNNHCVSRCNSQSCILAQEEEQYLQSGDQQLTRHVLLCLLLIIGLFANLSSCLWWLFNQEPGRLYVELQFFCAVFNFGQGFISFGIFGLDKHLIILPFKRRLEFLWNNKDTAENRDSPVSEEIKMTCQQFIHYHRDLCIRNIVKERRCGAKTSAGTFCGCDLVSWLIEVGLASDRGEAVIYGDRLVQGGVIQHITNEYEFRDEYLFYRFLQKSPEQSPPAINANTLQQERYKEIEHSSPPSHSPKT
Consider B1, for which the “stoichiometry N” value amounted to 2.

As a reminder, the stoichiometry N is the number of molecules, sites or subunits per partner or assembly.
